According to patent publication US20220403048A1, “BINDING MOLECULES TO ARGINASE II [ARG2]” (Cancer Research Technology Limited, priority 2019, published 2022):
Where a chain is given by its changes, count along the chain named. Blank lines part the entries; values can stand above or below the molecule they belong to.

Molecular target: T1, ARG2 (Homo sapiens, UniProt P78540)
T1 sequence (P78540 23-354): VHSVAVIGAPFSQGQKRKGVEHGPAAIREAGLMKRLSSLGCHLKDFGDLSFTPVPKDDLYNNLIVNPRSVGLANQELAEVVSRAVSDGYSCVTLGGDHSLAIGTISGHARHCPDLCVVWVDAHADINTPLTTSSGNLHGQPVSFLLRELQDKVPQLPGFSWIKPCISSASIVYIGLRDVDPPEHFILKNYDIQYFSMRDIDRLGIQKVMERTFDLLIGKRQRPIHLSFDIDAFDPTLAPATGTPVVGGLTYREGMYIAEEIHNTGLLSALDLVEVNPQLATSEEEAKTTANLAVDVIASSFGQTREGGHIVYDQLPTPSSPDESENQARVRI
Test: T cell proliferation assay (BrdU, 96 hours) with exogenous ARG2, improved variant IgGs
Format: cell-based
Details: In Absence of rhARG2, hIgG1
Description: This assay served to provide evidence of improved functional efficacy for each affinity-matured antibody in comparison to the parent IgG, C0020187 (FIG. 12).
Lead optimisation clones were tested to an endpoint treatment time of 96 hours and the BrdU Cell Proliferation Kit (Roche, France; Cat: 11647229001) was used according to the manufacturer's instructions. R347 was used as the irrelevant control. All clones tested n=2.
Leukocyte cones underwent Ficoll Plaque (GE, Sweden; Cat: 17-1440-02) gradient separation, PBMC's were extracted and pan T cell population isolated by negative selection using the Human T Cell Enrichment Kit (Stemcell Technologies, France; Cat: 19051) according to the manufacturer's instructions.
40000 cells/well were seeded in complete growth media (RMPI 1640, 5% Human Serum Albumin) into a 96 well clear TC treated microplate (Greiner-Bio One, Germany; Cat: 655180). T cells were activated by the addition of ImmunoCult CD3/CD28 (Stemcell Technologies, France; Cat: 10971) at a dilution of 1:40 directly into wells and the plate incubated 37° C., 5% CO2 for 45 minutes.
To determine EC50's of test antibodies, a dilution series was created in sterile TBS/NaCl Buffer at 10× the final assay concentration added to the assay plate containing cells. Plate was incubated for 30 minutes at 37° C., 5% CO2.
ARG2 was added to relevant wells of the plate at a final concentration of 15 μg/ml. The equivalent volume of ARG2 vehicle and test antibody vehicle was added to relevant control wells. The total volume in each well was 200 μl. Cells were treated with test antibodies for a total of 96 hours at 37° C., 5% CO2. Antibodies were tested alongside C0020187 (parent IgG) as a positive control and R347 (irrelevant isotype control antibody) as a negative control.
Assessment of T cell proliferation was performed using the BrdU Cell Proliferation ELISA Kit (Roche, Germany; Cat: 000000011647229001). BrdU labelling reagent was added after 78 hours of antibody treatment and the plate further incubated for 18 hours at 37° C., 5% CO2. The remainder of the assay was performed according to the manufacturer's instructions.
Calculated data was expressed as % of control (Equation 3) and graphical plots were constructed using a four parameter fit and EC50's determined using model 205 in XLFit (IDBS, UK).
All test sample data was corrected for background (mean of no cell control)
% Control=100*((Test Sample−Mean Positive Control)/(Mean Negative Control−Mean Positive Control)) Equation 3:
Mean Positive Control=T Cells in absence of ARG2
Mean Negative Control=T Cells in presence of ARG2
This assay served to provide evidence of improved functional efficacy for each affinity-matured antibody in comparison to the parent IgG, C0020187 (FIG. 14, Table 19). R347 was used as the irrelevant control. All clones tested n=2. Reference section 2.9 for methodology.

B4: C0021061: anti-ARG2 antibody, first generation lead, VH SEQ ID NO: 62, VL SEQ ID NO: 67 (antibody, listed as Homo sapiens, V domains shown)
VH: EVQLLESGGGLVQPGGSLRLSCAASGFTFSSYAMSWVRQAPGKGLEWVSAKPTDAGSTYYADSVKGRFTISRDNSKNTLYLQMNSLRAEDTAVYYCARLRADLGLYMDLWGRGTLVTVSS
VL: QSVLTQPPSVSAAPGQKVTISCSGSSSNIGNHYVSWYQQLPGTAPKLLIYNTVYPKSGIPDRFSGSKSGTSATLGITGLQTGDEADYYCGTWDSSLSALVFGGGTKLTVL
modifications: C0021061
- EC50 (96 hours): < 0.9 nM
- Maximum % Proliferation (96 hours): 99%
- EC50 (top conc 2 μM, n=2): < 0.9 nM
- Maximum % Proliferation (top conc 2 μM, n=2): 93%

B7: C0021065: anti-ARG2 antibody, VH SEQ ID NO: 72, VL SEQ ID NO: 77 (antibody, listed as Homo sapiens, V domains shown)
VH: EVQLLESGGGLVQPGGSLRLSCAASGFTFSSYAMSWVRQAPGKGPEWVSAISGFSPYYADSVKGRFTISRDNSRNTLYLQMNSLRAEDTAVYYCARLRADLGLYMDLWGRGTLVTVSS
VL: B4 VL with N51D, V53D, Y54H, P55M, K56A
modifications: C0021065
- EC50 (96 hours): < 0.9 nM
- Maximum % Proliferation (96 hours): 101%

B8: C0021092: anti-ARG2 antibody, VH SEQ ID NO: 92, VL SEQ ID NO: 97 (antibody, listed as Homo sapiens, V domains shown)
VH: B4 VH with S31R, K51H, P52T, T53H, D54S, A55P
VL: B4 VL with T52S, Y54A, P55R, K56P
modifications: C0021092
- EC50 (96 hours): < 0.9 nM
- Maximum % Proliferation (96 hours): 92%

B9: C0021022: anti-ARG2 antibody, VH SEQ ID NO: 42, VL SEQ ID NO: 47 (antibody, listed as Homo sapiens, V domains shown)
VH: B7 VH with R74K
VL: B4 VL with N51D, T52N, V53S, Y54E, P55R, K56P
modifications: C0021022
- EC50 (96 hours): < 1 nM

Further lines, results first:

- EC50 (top conc 2 μM, n=2): < 0.9 nM
- Maximum % Proliferation (top conc 2 μM, n=2): 94%
B1: C0021158: anti-ARG2 antibody, second generation lead, VH SEQ ID NO: 272, VL SEQ ID NO: 277 (antibody, listed as Homo sapiens, V domains shown)
VH: EVQLLESGGGLVQPGGSLRLSCAASGFTFRYEVAAWVRQAPGKGLEWVSAISGPIPKGYYADSVKGRFTISRDNSKNTLYLQMNSLRAEDTAVYYCARLRADLGLYMDLWGRGTLVTVPS
VL: QSVLTQPPSVSAAPGQKVTISCSGSSSNIGNHYVSWYQQLPGTAPKLLIYDNSERTAGVPDRFSGSKSGTSATLGITGLQTGDEADYYCGTWDELTSNLVFGGGTKLTVL
modifications: C0021158

- EC50 (top conc 2 μM, n=2): < 0.9 nM
- Maximum % Proliferation (top conc 2 μM, n=2): 96%
B2: C0021180: anti-ARG2 antibody, VH SEQ ID NO: 332, VL SEQ ID NO: 337 (antibody, listed as Homo sapiens, V domains shown)
VH: B1 VH with P119S
VL: QSVLTQPPTVSAAPGRKVTISCSGSSSNIGDHHVSWYQQLPGAAPKLLIYDTDHMASGIPDRFSGSRSGTSATLGITGLQTGDEADYYCGTWDSSLSALVFGGGTKLTVL
modifications: C0021180

- EC50 (top conc 2 μM, n=2): < 0.9 nM
- Maximum % Proliferation (top conc 2 μM, n=2): 90%
B3: C0021177: anti-ARG2 antibody, VH SEQ ID NO: 322, VL SEQ ID NO: 327 (antibody, listed as Homo sapiens, V domains shown)
VH: B1 VH with I55A, P119S
VL: B1 VL with V3E, S9T, V10A, N52T, S53T, E54V, R55L, T56S, A57S, V59I
modifications: C0021177

- EC50 (96 hours): < 1 nM
- Maximum % Proliferation (96 hours): 84%
B5: C0021139: anti-ARG2 antibody, VH SEQ ID NO: 212, VL SEQ ID NO: 217 (antibody, listed as Homo sapiens, V domains shown)
VH: EVQLLESGGGLVQPGGSLRLSCAASGFTFQYDYQVWVRQAPGKGLEWVSAISGSGGSTYYADSVKGRFTISRDNSKNTLYLQMNSLRAEDTAVYYCARLRADLGLYMDLWGRGTLVTVSS
VL: B1 VL with A57S, V59I
modifications: C0021139

- EC50 (96 hours): < 0.7 nM
- Maximum % Proliferation (96 hours): 90%
B6: C0021133: anti-ARG2 antibody, VH SEQ ID NO: 192, VL SEQ ID NO: 197 (antibody, listed as Homo sapiens, V domains shown)
VH: B5 VH with Q30R, Y33H, Q34H
VL: B1 VL with I20V, N52T, S53T, E54V, R55L, T56S, A57S, V59I
modifications: C0021133
